Biological target: MDM2 SWIB domain, Danio rerio (Danio rerio)
Assay: fluorescence polarisation

Kd [nM]	fold higher affinity than p53TAD (D.rerio)^15-27 [fold]	fold reduced affinity against p53TAD (D.rerio)^17-32 [fold]	Substance
580			alternative p53TAD_(D.rerio)^17-32 (P79734), ending with IIQPP (peptide)
49	> 70		p53TAD_(D.rerio)^10-75 (domain or fragment)
180			p53TAD_(D.rerio)^12-55 (domain or fragment)
		7.7	p53TAD_(D.rerio)^17-32 triple Ala mutant (AAAQP) (peptide)

Reference: publication doi:10.1101/2023.08.24.554616
